Assay results taken from paper PMC1474052.

Assays:
[1] = biological target: BPV-1 E1 helicase domain F464A (bovine papillomavirus type 1 (BPV-1)); assay: SEC
[2] = biological target: BPV-1 E1 helicase domain F464W (bovine papillomavirus type 1 (BPV-1)); assay: SEC
[3] = biological target: BPV-1 E1 helicase domain H507A (bovine papillomavirus type 1 (BPV-1)); assay: SEC
[4] = biological target: BPV-1 E1 helicase domain K506A (bovine papillomavirus type 1 (BPV-1)); assay: SEC
[5] = biological target: BPV-1 E1 helicase domain R505E (bovine papillomavirus type 1 (BPV-1)); assay: SEC
[6] = biological target: BPV-1 E1 helicase domain W465F (bovine papillomavirus type 1 (BPV-1)); assay: SEC
[7] = biological target: BPV-1 E1 helicase domain, wild type (bovine papillomavirus type 1 (BPV-1)); assay: SEC
E1HD wild-type = E1HD wild-type (Bovine papillomavirus 1 (BPV-1), UniProt P03116 299-605); assay: EMSA

Molecule “BPV-1 E1 helicase domain F464A (domain or fragment)” has a stoichiometry N [1] of 6.

“BPV-1 E1 helicase domain F464W (domain or fragment)” was tested, and the stoichiometry N [2] was 6.

“BPV-1 E1 helicase domain H507A (domain or fragment)” showed a stoichiometry N [3] of 6.

With “BPV-1 E1 helicase domain K506A (domain or fragment)” the stoichiometry N [4] was 6.

“BPV-1 E1 helicase domain R505E (domain or fragment)” was tested, and the stoichiometry N [5] was 6.

“BPV-1 E1 helicase domain W465F (domain or fragment)” gave a stoichiometry N [6] of 6.

For “BPV-1 E1 helicase domain, wild type (domain or fragment)”, the stoichiometry N [7] was 6.

TGCTCTAGAATGCAAACTACTCTGAACGAG (ssDNA) [30mer ssDNA]: binds (E1HD wild-type).
